Experiments:
[1] = target: V2 aa 168-182 peptide (HIV-1); assay: ELISA on V2 peptide (FIG. 55A)
[2] = target: 92TH023 V2 cyclic peptide (HIV-1); assay: RPMI 8866 cell adhesion to coated peptide, mAb 5 ug/ml
[3] = target: 92TH023 V2 cyclic peptide (HIV-1); assay: RPMI 8866 cell adhesion to coated peptide, mAb 10 ug/ml
[4] = target: 92TH023 V2 cyclic peptide (HIV-1); assay: RPMI 8866 cell adhesion to coated peptide, mAb 20 ug/ml

| Binder | EC50 [1] | % inhibition [2] | % inhibition [3] | % inhibition [4] |
| --- | --- | --- | --- | --- |
| CH59 (antibody, V domains shown) VH: EVQLVESGGGLVQPGRSLRLSCAASGFTFDDGAMHWVRQAPGKGLEWVSGISWNSNIIAYADSVKGRFTISRDNAKNSLYLEMNSLRVEDTALYYCAKDSPRGELPLNYWGQGTLVTVSS VL: SYELTQPPSVSVSPGQTARITCSGDALPKNYAYWYQQKSGQAPVLVIYEDSKRPSGIPERFSGSSSGTMATLTISGAQVEDEADYYCYSTDSSGNHRVFGGGTKLTVL | 3 ng/mL | 19.4% | 36.7% | 44.8% |
| 697D (antibody, V domains shown) VH: QVQLVQSGAEVKKPGSSVKVSCKASGGNFNTYTISWVRQAPGQGLEWMGRIIPIFGIVNPAQKFPGRVTINVDKSTNTAYMELSSLRSEDTAVYYCATSGVGLHFGYFDYWGQGTQVTVSS VL: QSVLTQPPSVSGAPGQRVTISCTGSSSNIGAHYDVHWYQQLPGTAPKLLIYGNSNRPSGVPDRFSGSKSGTSASLAITGLQAEDEADYYCQSYDSSLSGYVFGTGTKVTVL |  |  | -13.1% |  |
